Assay results from US20230142800A1 (COMMISSARIAT A L ENERGIE ATOMIQUE ET AUX ENERGIES …, published 2023).
Substitutions are numbered along the chain they refer to.

B1: CDRH2 library mutant AAIAWNGGHH (Fab, V domains shown)
VH: EVQLVESGGGLVQPGRSLRLSCAASGFTFDDYAMHWVRQAPGKGLEWVAAIAWNGGHHDYADSVEGRFTISRDNAKNSLYLQMNSLRAEDTAVYYCAKVSYLSTASSLDYWGQGTLVTVSS
VL: not shown
B2: CDRH2 library mutant AAISWNGGHA (Fab, V domains shown)
VH: B1 VH with A52S, H58A
VL: not shown
B3: CDRH2 library mutant GAITWNGGHR (Fab, V domains shown)
VH: B1 VH with A49G, A52T, H58R
VL: not shown
B4: CDRH2 library mutant SAINWNGGHR (Fab, V domains shown)
VH: B1 VH with A49S, A52N, H58R
VL: not shown
B5: CDRH2 library mutant AAITWNGGHT (Fab, V domains shown)
VH: B1 VH with A52T, H58T
VL: not shown
B6: CDRH2 library mutant GAISWNGGHH (Fab, V domains shown)
VH: B1 VH with A49G, A52S
VL: not shown
B7: CDRH2 library mutant SAISWNGGHT (Fab, V domains shown)
VH: B1 VH with A49S, A52S, H58T
VL: not shown
B8: CDRH2 library mutant AAINWNGGHH (Fab, V domains shown)
VH: B1 VH with A52N
VL: not shown
B9: CDRH2 library mutant SAISWNGGHR (Fab, V domains shown)
VH: B1 VH with A49S, A52S, H58R
VL: not shown
B10: CDRH2 library mutant AAISWNGGHS (Fab, V domains shown)
VH: B1 VH with A52S, H58S
VL: not shown
B11: CDRH2 library mutant AAIAWNGGHT (Fab, V domains shown)
VH: B1 VH with H58T
VL: not shown
B12: CDRH2 library mutant AAIAWNGGHS (Fab, V domains shown)
VH: B1 VH with H58S
VL: not shown
B13: CDRH2 library mutant GAINWNGGHR (Fab, V domains shown)
VH: B1 VH with A49G, A52N, H58R
VL: not shown
B14: CDRH2 library mutant SSIAWNGGHW (Fab, V domains shown)
VH: B1 VH with A49S, A50S, H58W
VL: not shown
B15: CDRH2 library mutant AAISWNGGHQ (Fab, V domains shown)
VH: B1 VH with A52S, H58Q
VL: not shown
B16: CDRH2 library mutant GAISWNGGHR (Fab, V domains shown)
VH: B1 VH with A49G, A52S, H58R
VL: not shown
B17: CDRH2 library mutant AAINWNGGHR (Fab, V domains shown)
VH: B1 VH with A52N, H58R
VL: not shown
B18: CDRH2 library mutant AAISWNGGHT (Fab, V domains shown)
VH: B1 VH with A52S, H58T
VL: not shown
B19: CDRH2 library mutant GAINWNGGHT (Fab, V domains shown)
VH: B1 VH with A49G, A52N, H58T
VL: not shown
B20: CDRH2 library mutant AAIAWNGGHR (Fab, V domains shown)
VH: B1 VH with H58R
VL: not shown
B21: CDRH2 library mutant SAISWNGGHQ (Fab, V domains shown)
VH: B1 VH with A49S, A52S, H58Q
VL: not shown
B22: CDRH2 library mutant SAISWNGGHH (Fab, V domains shown)
VH: B1 VH with A49S, A52S
VL: not shown
B23: CDRH2 library mutant AAISWNGGHH (Fab, V domains shown)
VH: B1 VH with A52S
VL: not shown
B24: CDRH2 library mutant AAISWNGGHR (Fab, V domains shown)
VH: B1 VH with A52S, H58R
VL: not shown
B25: CDRH2 library mutant AAINWNSGHR (Fab, V domains shown)
VH: B1 VH with A52N, G55S, H58R
VL: not shown
B26: CDRH2 library mutant GAISWNGGHT (Fab, V domains shown)
VH: B1 VH with A49G, A52S, H58T
VL: not shown
B27: CDRH2 library mutant AAITWNGGHR (Fab, V domains shown)
VH: B1 VH with A52T, H58R
VL: not shown
B28: CDRH2 library mutant AAIAWNGGHQ (Fab, V domains shown)
VH: B1 VH with H58Q
VL: not shown
B29: CDRH2 library mutant AAINWNSGHQ (Fab, V domains shown)
VH: B1 VH with A52N, G55S, H58Q
VL: not shown
B30: Mutant 4, Fab displayed on yeast (CDRH2-CDRH3 combinatorial library) (Fab, V domains shown)
VH: B1 VH with A49G, A52N, G55S, V99T, S100T, S103P
VL: not shown
notes: same variable domains as the soluble Mutant 4 Fab; see its note
B31: Mutant 7, Fab displayed on yeast (CDRH2-CDRH3 combinatorial library) (Fab, V domains shown)
VH: B1 VH with A49G, A52N, H58R, V99A, S100H, S103P
VL: not shown
notes: same variable domains as the soluble Mutant 7 Fab; see its note
B32: Mutant 3, Fab displayed on yeast (CDRH2-CDRH3 combinatorial library) (Fab, V domains shown)
VH: B1 VH with A49G, A52N, V99T, S100T, S103P
VL: not shown
notes: same variable domains as the soluble Mutant 3 Fab; see its note
B33: Mutant 1, Fab displayed on yeast (CDRH2-CDRH3 combinatorial library) (Fab, V domains shown)
VH: B1 VH with A49G, A52N, H58R, V99S, S100Q, S103P
VL: not shown
notes: same variable domains as the soluble Mutant 1 Fab; see its note
B34: Mutant 6, Fab displayed on yeast (CDRH2-CDRH3 combinatorial library) (Fab, V domains shown)
VH: B1 VH with A49G, A52N, H58R, V99T, S100N, S103P
VL: not shown
notes: same variable domains as the soluble Mutant 6 Fab; see its note
B35: Mutant 8, Fab displayed on yeast (CDRH2-CDRH3 combinatorial library) (Fab, V domains shown)
VH: B1 VH with A49G, A52N, H58R, V93L, V99T, S100T, S103P
VL: not shown
notes: same variable domains as the soluble Mutant 8 Fab; see its note
B36: Mutant 5, Fab displayed on yeast (CDRH2-CDRH3 combinatorial library) (Fab, V domains shown)
VH: B1 VH with A49G, A50D, A52S, H58T, V99T, S100T, S103P
VL: not shown
notes: same variable domains as the soluble Mutant 5 Fab; see its note
B37: Mutant 2, Fab displayed on yeast (CDRH2-CDRH3 combinatorial library) (Fab, V domains shown)
VH: B1 VH with A49G, A50T, A52N, H58S, V99T, S100T, S103P
VL: not shown
notes: same variable domains as the soluble Mutant 2 Fab; see its note
B38: CDRH3 library mutant VYYCAKVTYTPS (Fab, V domains shown)
VH: B1 VH with A49S, A52T, G55S, H58I, S100T, L102T, S103P, T104S
VL: not shown
B39: CDRH3 library mutant VYYCAKVKYLPP (Fab, V domains shown)
VH: B1 VH with A49S, A52T, G55S, H58I, S100K, S103P, T104P
VL: not shown
B40: CDRH3 library mutant VYYCAKVTYLPS (Fab, V domains shown)
VH: B1 VH with A49S, A52T, G55S, H58I, S100T, S103P, T104S
VL: not shown
B41: CDRH3 library mutant VYYCAKVKYLPA (Fab, V domains shown)
VH: B1 VH with A49S, A52T, G55S, H58I, S100K, S103P, T104A
VL: not shown
B42: CDRH3 library mutant VYYCAKVKYLPS (Fab, V domains shown)
VH: B1 VH with A49S, A52T, G55S, H58I, S100K, S103P, T104S
VL: not shown
B43: Mutant 5, Fab format (Fab, V domains shown)
VH: B1 VH with A49G, A50D, A52S, H58T, V99T, S100T, S103P
VL: not shown
notes: Soluble Fab as for Mutant 1; also called mutation 5

What follows are binders tested against T1, biotinylated TNF alpha (human (definition in paragraph 32)); the …, UniProt P01375 77-233, biotinylated (site not stated)) (assay: yeast display FACS sorting on biotinylated TNF alpha, NGS enrichment, CDRH2 library).
T1 construct: Used for FACS sorting of yeast libraries and immobilised on streptavidin sensors for BLI; also called TNFα; Tumor Necrosis Factor Alpha
T1 sequence (P01375 77-233 limits assumed): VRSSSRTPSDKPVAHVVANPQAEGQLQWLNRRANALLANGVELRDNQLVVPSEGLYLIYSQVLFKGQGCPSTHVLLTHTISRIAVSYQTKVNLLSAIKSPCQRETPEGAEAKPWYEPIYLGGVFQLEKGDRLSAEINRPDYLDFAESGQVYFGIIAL

Row | Enrichment | Binder
1 | 119 | B1
2 | 75 | B2
3 | 64 | B3
4 | 79 | B4
5 | 91 | B5
6 | 66 | B6
7 | 100 | B7
8 | 132 | B8
9 | 207 | B9
10 | 82 | B10
11 | 144 | B11
12 | 93 | B12
13 | 222 | B13
14 | 128 | B14
15 | 192 | B15
16 | 279 | B16
17 | 417 | B17
18 | 193 | B18
19 | 62 | B19
20 | 197 | B20
21 | 104 | B21
22 | 87 | B22
23 | 164 | B23
24 | 382 | B24
25 | 122 | B25
26 | 133 | B26
27 | 213 | B27
28 | 109 | B28
29 | 105 | B29

Each binder was assayed against T1, biotinylated TNF alpha (assay: yeast display FACS sorting on biotinylated TNF alpha, NGS enrichment, CDRH2-CDRH3 library).

Row | Enrichment | Binder
30 | 186000 | B30
31 | 59400 | B31
32 | 111000 | B32
33 | 217000 | B33
34 | 238000 | B34
35 | 238000 | B35
36 | 512000 | B36
37 | 1.47e+06 | B37

Each binder was assayed against T1, biotinylated TNF alpha (assay: yeast display MACS and FACS sorting on biotinylated TNF alpha, NGS enrichment, CDRH3 library).
Text: The second selection phase consists of selecting the mutant by the dissociation speed thereof.
The selection of DMS libraries was done in a single step by FACS on an ARIA III device (Becton Dickinson, Franklin Lakes, United States). […] After washing the cells with PBS 0.1% BSA, they were marked by using an APC coupled antibody directed against the OK domain (Thermo Fisher Scientific, Waltham, United States; dilution 1:100) and a PE coupled streptavidin (Thermo Fisher Scientific, Waltham, United States; dilution 1:100). The selection of libraries was done by means of rectangular sorting window containing 5% of the clones of interest according to the optimal parameters described by Kowalski et al. PLoS One 10, 1-23 (2015)). The selection of de-immunization libraries was done in several steps. […] The libraries underwent different steps of sorting by FACS.

Row | Enrichment | Binder
38 | 99200 | B38
39 | 61600 | B39
40 | 241000 | B40
41 | 81400 | B41
42 | 71900 | B42

These binders were tested against T1, biotinylated TNF alpha (assay: BLI (Octet Red96), Fab in solution, biotinylated TNF alpha on streptavidin sensors, 1:1 global fit).
Method: After saturation the sensors in a blocking solution containing 10 μg/mL biotin (Sigma-Aldrich, Saint-Louis, United States), the association and dissociation are measured over 20 and 40 minutes respectively. […] During the analysis, the reference is subtracted from each curve and a 1:1 global Langmuir model is applied in order to get the affinity parameters.

Row | Kd [pM] | Binder
43 | 9 | B43
